Columns and labels:
[1] = biological target: T1, human CD8αα homodimer, recombinant protein (Acro Biosystems) (human, UniProt P01732 22-182); test: BLI kinetic rate analysis, Fab fragment (temperature not given)
T1 construct: also called CD8αα antigen; biotinylated CD8α recombinant protein (CDA-H82E3)
Procedure: (§1) Biolayer interferometry kinetic assays were performed using a GatorBio Gator Plus BLI system. Kinetic buffer containing PBS plus 0.1% Tween 20 and 0.2% BSA was used for calculating the baseline. To measure the binding kinetics of anti-CD8α antibody fragment (Fab), streptavidin-immobilized SA-XT sensors (#160029, Gator Bio) were prehydrated in the kinetic buffer and loaded with […] biotinylated CD8α recombinant protein (CDA-H82E3, Acro Biosystems) at a spin speed of 400 rpm to a threshold response of 10 nm. The sensors were then incubated in the kinetic buffer for 300 s to acquire a baseline measurement prior to each association. […] The antigen-loaded sensors were incubated in the diluted solutions to capture Fab fragments for 300 s to record the association phase. Sensors were finally incubated in the kinetic buffer for 900 s to record the dissociation phase. The spin speed for all steps except the antigen loading step was 1000 rpm. The temperature of the performed assays was either 30° C. or 37° C. during the association and dissociation phases. Sensor data were baseline subtracted, and global curve fitting of the kinetic data from six different analyte concentrations at a 1:1 monovalent binding model was performed using GatorOne software (version v2.10) to determine kinetic rate constants (kₒₙ and koff) and equilibrium dissociation constants (KD) of the analyzed antibodies.

[2] = biological target: T1, human CD8αα homodimer, recombinant …; test: BLI kinetic assay, engineered F(ab') fragment
Procedure: The global fitting was performed with a 1:1 fitting model using GatorOne software as described below.
as §1

[3] = biological target: T1, human CD8αα homodimer, recombinant …; test: BLI steady state, whole hIgG1-LALAPA antibody on CD8α-His (Ni-NTA sensor), 30 °C
Procedure: To assess affinity of whole antibodies, steady state analysis was used as the bivalent nature of both whole antibody and CD8α complicates kinetic analysis. 50 nM CD8α-His (that is, CD8α with a C-terminal oligohistidine tag; Acro) was immobilized on Ni-NTA sensor probes. Binding was analyzed with a three-fold antibody dilutions series: 60 nM, 20 nM, 6.67 nM, 2.22 nM, 0.74 nM, and 0.25 nM. The antigen-loaded sensors were incubated in the diluted solutions to capture the whole IgG antibody for 300 s to record the association phase. Sensors were incubated in the kinetic buffer for 900 s to record the dissociation phase. The spin speed was 1000 rpm for all steps except the antigen loading step which was 400 rpm to control density of the antigen. The temperature of the performed assays was at 30° C. during the association and dissociation phases. The sensor data were baseline subtracted and further analyzed in GatorOne software (version 2.10) to determine the equilibrium dissociation constants (KD) of the antibodies by fitting the signals of the steady states to the 1:1 binding model.

T1 sequence (P01732 22-182 limits assumed): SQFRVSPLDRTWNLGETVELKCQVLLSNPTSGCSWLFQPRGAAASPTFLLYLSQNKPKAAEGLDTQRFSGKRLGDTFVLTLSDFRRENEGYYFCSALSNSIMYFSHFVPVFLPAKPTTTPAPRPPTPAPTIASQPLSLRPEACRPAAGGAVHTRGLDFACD

| Kd [1] [nM] | koff [1] [s⁻¹] | kon [1] [M⁻¹ s⁻¹] | Kd [3] [nM] | Binder | also measured |
| --- | --- | --- | --- | --- | --- |
| 0.86 | 6.91e-05 | 80300 | – | CBD1382 (Fab, V domains shown) VH: QVQLVQSGAEVKKPGASVKVSCKASRYTFTDYNLHWVRQAPGQGLEWMGFIYPYAGGTGYAQKFQGRVTMTVDTSTSTAYMELSSLRSEDTAVYYCARDHRYNEGVSFDYWGQGTTVTVSS VL: DIQLTQSPSSLSASVGDRATITCRASESVDGFGNSFMNWYQQKPGKAPKLLIYLASNLESGVPSRFSGSGSGTDFTLTISSVQPEDFATYYCQQNNEDPYTFGQGTKLEIK | – |
| 2.91 | 9.97e-05 | 34300 | – | CBD1622 Fab (VL D30S and VH N55Q of CBD1033) (Fab, V domains shown, also called D30S and N55Q) VH: QVQLVQSGAEVKKPGASVKVSCKASRYTFTDYNLHWVRQAPGQGLEWMGFIYPYQGGTGYAQKFQGRVTMTVDTSTSTAYMELSSLRSEDTAVYYCARDHRYNEGVSFDYWGQGTTVTVSS VL: DIQLTQSPSSLSASVGDRATITCRASESVSGFGNSFMNWYQQKPGKAPKLLIYLASNLESGVPSRFSGSGSGTDFTLTISSVQPEDFATYYCQQNNEDPYTFGQGTKLEIK | – |
| 7.69 | 0.000196 | 25500 | – | CBD1444 Fab (VL D30S of CBD1033) (Fab, V domains shown) VH: QVQLVQSGAEVKKPGASVKVSCKASRYTFTDYNLHWVRQAPGQGLEWMGFIYPYNGGTGYAQKFQGRVTMTVDTSTSTAYMELSSLRSEDTAVYYCARDHRYNEGVSFDYWGQGTTVTVSS VL: DIQLTQSPSSLSASVGDRATITCRASESVSGFGNSFMNWYQQKPGKAPKLLIYLASNLESGVPSRFSGSGSGTDFTLTISSVQPEDFATYYCQQNNEDPYTFGQGTKLEIK | – |
| 0.617 | 7.02e-05 | 114000 | – | CBD1623 Fab (VL D30S and VH N55A of CBD1033) (Fab, V domains shown, also called D30S and N55A) VH: QVQLVQSGAEVKKPGASVKVSCKASRYTFTDYNLHWVRQAPGQGLEWMGFIYPYAGGTGYAQKFQGRVTMTVDTSTSTAYMELSSLRSEDTAVYYCARDHRYNEGVSFDYWGQGTTVTVSS VL: DIQLTQSPSSLSASVGDRATITCRASESVSGFGNSFMNWYQQKPGKAPKLLIYLASNLESGVPSRFSGSGSGTDFTLTISSVQPEDFATYYCQQNNEDPYTFGQGTKLEIK | – |
| 10 | 0.000284 | 28400 | – | CBD1443 Fab (VL D30E of CBD1033) (Fab, V domains shown) VH: QVQLVQSGAEVKKPGASVKVSCKASRYTFTDYNLHWVRQAPGQGLEWMGFIYPYNGGTGYAQKFQGRVTMTVDTSTSTAYMELSSLRSEDTAVYYCARDHRYNEGVSFDYWGQGTTVTVSS VL: DIQLTQSPSSLSASVGDRATITCRASESVEGFGNSFMNWYQQKPGKAPKLLIYLASNLESGVPSRFSGSGSGTDFTLTISSVQPEDFATYYCQQNNEDPYTFGQGTKLEIK | – |
| 15.6 | 0.00048 | 30700 | – | CBD1445 Fab (VL D30A of CBD1033) (Fab, V domains shown) VH: QVQLVQSGAEVKKPGASVKVSCKASRYTFTDYNLHWVRQAPGQGLEWMGFIYPYNGGTGYAQKFQGRVTMTVDTSTSTAYMELSSLRSEDTAVYYCARDHRYNEGVSFDYWGQGTTVTVSS VL: DIQLTQSPSSLSASVGDRATITCRASESVAGFGNSFMNWYQQKPGKAPKLLIYLASNLESGVPSRFSGSGSGTDFTLTISSVQPEDFATYYCQQNNEDPYTFGQGTKLEIK | – |

The remaining lines, values behind:

| Binder | Kd [1] [nM] | koff [1] [s⁻¹] | kon [1] [M⁻¹ s⁻¹] | Kd [3] [nM] | also measured |
| --- | --- | --- | --- | --- | --- |
| CBD1033.42 disulfide-engineered F(ab') analog (IgG1, truncated P240) (Fab, V domains shown, also called .42 design) VH: QVQLVQSGAEVKKPGASVKVSCKASRYTFTDYNLHWVRQAPGQGLEWMGFIYPYNGGTGYAQKFQGRVTMTVDTSTSTAYMELSSLRSEDTAVYYCARDHRYNEGVSFDYWGQGTTVTVSS VL: DIQLTQSPSSLSASVGDRATITCRASESVDGFGNSFMNWYQQKPGKAPKLLIYLASNLESGVPSRFSGSGSGTDFTLTISSVQPEDFATYYCQQNNEDPYTFGQGTKLEIKR | – | – | – | – | Kd [2]: 5.09 nM; koff [2]: 6.41e-05 s⁻¹; kon [2]: 12600 M⁻¹ s⁻¹ |
| CBD1033.44 disulfide-engineered F(ab') analog (IgG1, truncated T238) (Fab, V domains shown, also called .44 design) VH: QVQLVQSGAEVKKPGASVKVSCKASRYTFTDYNLHWVRQAPGQGLEWMGFIYPYNGGTGYAQKFQGRVTMTVDTSTSTAYMELSSLRSEDTAVYYCARDHRYNEGVSFDYWGQGTTVTVSS VL: DIQLTQSPSSLSASVGDRATITCRASESVDGFGNSFMNWYQQKPGKAPKLLIYLASNLESGVPSRFSGSGSGTDFTLTISSVQPEDFATYYCQQNNEDPYTFGQGTKLEIKR | – | – | – | – | Kd [2]: 7.23 nM; koff [2]: 8.88e-05 s⁻¹; kon [2]: 12300 M⁻¹ s⁻¹ |
| CBD1045 (antibody, human IgG1, kappa, L234A L235A, V domains shown, also called h1017-H8/L5 whole antibody hIgG1-LALAPA) VH: QVQLVQSGAEVKKPGASVKVSCKASRYTFTDYNLHWVRQAPGQGLEWIGFIYPYNGGTGYAQKFKGRVTITADTSTSTAYMELSSLRSEDTAVYYCARDHRYNEGVSFDYWGQGTLVTVSS VL: EIVLTQSPGTLSLSPGERATLSCRASESVDGFGNSFMNWYQQKPGQAPRLLIYLASNLESGVPARFSGSGSGTDFTLTISRLEPEDFAVYYCQQNNEDPYTFGQGTKVEIKR | – | – | – | 4.18 | – |
| CBD1047 (antibody, human IgG1, kappa, L234A L235A, V domains shown, also called h1017-H9/L5 whole antibody hIgG1-LALAPA) VH: QVQLVQSGAEVKKPGASVKVSCKASRYTFTDYNLHWVRQAPGQGLEWMGFIYPYNGGTGYAQKFQGRVTLTVDYSTSTAYMELSSLRSEDTAVYYCARDHRYNEGVSFDYWGQGTLVTVSS VL: EIVLTQSPGTLSLSPGERATLSCRASESVDGFGNSFMNWYQQKPGQAPRLLIYLASNLESGVPARFSGSGSGTDFTLTISRLEPEDFAVYYCQQNNEDPYTFGQGTKVEIKR | – | – | – | 2.72 | – |
| CBD1046 (antibody, human IgG1, kappa, L234A L235A, V domains shown, also called h1017-H8/L6 whole antibody hIgG1-LALAPA) VH: QVQLVQSGAEVKKPGASVKVSCKASRYTFTDYNLHWVRQAPGQGLEWIGFIYPYNGGTGYAQKFKGRVTITADTSTSTAYMELSSLRSEDTAVYYCARDHRYNEGVSFDYWGQGTLVTVSS VL: EIVLTQSPGTLSLSPGERATLSCRASESVDGFGNSFMNWYQQKPGQAPRLLIYLASNLESGVPARFSGSGSRTDFTLTISRLEPEDFAVYYCQQNNEDPYTFGQGTKVEIKR | – | – | – | 9.78 | – |
| CBD1044 (antibody, human IgG1, kappa, L234A L235A, V domains shown, also called h1017-H7/L6 whole antibody hIgG1-LALAPA) VH: QVQLVQSGAEVKKPGASVKVSCKASRYTFTDYNLHWVRQAPGQGLEWIGFIYPYNGGTGYAQKFQGRVTITADTSTSTAYMELSSLRSEDTAVYYCARDHRYNEGVSFDYWGQGTLVTVSS VL: EIVLTQSPGTLSLSPGERATLSCRASESVDGFGNSFMNWYQQKPGQAPRLLIYLASNLESGVPARFSGSGSRTDFTLTISRLEPEDFAVYYCQQNNEDPYTFGQGTKVEIKR | – | – | – | 8.65 | – |
| CBD1048 (antibody, human IgG1, kappa, L234A L235A, V domains shown, also called h1017-H9/L6 whole antibody hIgG1-LALAPA) VH: QVQLVQSGAEVKKPGASVKVSCKASRYTFTDYNLHWVRQAPGQGLEWMGFIYPYNGGTGYAQKFQGRVTLTVDYSTSTAYMELSSLRSEDTAVYYCARDHRYNEGVSFDYWGQGTLVTVSS VL: EIVLTQSPGTLSLSPGERATLSCRASESVDGFGNSFMNWYQQKPGQAPRLLIYLASNLESGVPARFSGSGSRTDFTLTISRLEPEDFAVYYCQQNNEDPYTFGQGTKVEIKR | – | – | – | 5.45 | – |
| CBD1041 (antibody, human IgG1, kappa, L234A L235A, V domains shown, also called h1017-H6/L4 whole antibody hIgG1-LALAPA) VH: QVQLVQSGAEVKKPGASVKVSCKASRYTFTDYNLHWVRQAPGQGLEWMGFIYPYNGGTNYAQKFQGRVTITADTSTSTAYMELSSLRSEDTAVYYCARDHRYNEGVSFDYWGQGTLVTVSS VL: EIVLTQSPGTLSLSPGERATLSCRASESVDGFGNSFMNWYQQKPGQAPRLLIYLASNLESGIPARFSGSGSGTDFTLTISRLEPEDFAVYYCQQNNEDPYTFGQGTKVEIKR | – | – | – | 10.2 | – |
| CBD1033.45 disulfide-engineered F(ab') analog (IgG1, truncated T238, C233S) (Fab, V domains shown, also called .45 design) VH: QVQLVQSGAEVKKPGASVKVSCKASRYTFTDYNLHWVRQAPGQGLEWMGFIYPYNGGTGYAQKFQGRVTMTVDTSTSTAYMELSSLRSEDTAVYYCARDHRYNEGVSFDYWGQGTTVTVSS VL: DIQLTQSPSSLSASVGDRATITCRASESVDGFGNSFMNWYQQKPGKAPKLLIYLASNLESGVPSRFSGSGSGTDFTLTISSVQPEDFATYYCQQNNEDPYTFGQGTKLEIKR | – | – | – | – | Kd [2]: 9.03 nM; koff [2]: 0.000117 s⁻¹; kon [2]: 13000 M⁻¹ s⁻¹ |
| CBD1042 (antibody, human IgG1, kappa, L234A L235A, V domains shown, also called h1017-H7/L4 whole antibody hIgG1-LALAPA) VH: QVQLVQSGAEVKKPGASVKVSCKASRYTFTDYNLHWVRQAPGQGLEWIGFIYPYNGGTGYAQKFQGRVTITADTSTSTAYMELSSLRSEDTAVYYCARDHRYNEGVSFDYWGQGTLVTVSS VL: EIVLTQSPGTLSLSPGERATLSCRASESVDGFGNSFMNWYQQKPGQAPRLLIYLASNLESGIPARFSGSGSGTDFTLTISRLEPEDFAVYYCQQNNEDPYTFGQGTKVEIKR | – | – | – | 3.59 | – |
